{"source": "paper PMC9045261", "target": "OXAVL02 (OXA-1089)", "assay": "SEC-MALS; active SEC fractions dialyzed against PBS (Na2HPO4 10 mM, KH2PO4 1.8 mM, NaCl 137 mM, KCl 2.7 mM, pH 7.4); 100 uL at 0.5 to 1 mg/mL on Superdex 200 Increase 10/300; UV, MALS and refractive index detectors; monomer-dimer equilibrium"}
{"substance": "OXAVL02 (OXA-1089) (enzyme)", "values": [{"measurement": "stoichiometry N", "result": 2}]}
